Data set [1] concerns the target T1, Tnp26 WT (IS26 (bacterial insertion sequence; …, UniProt A0A2K9V0L7 1-234, G117R).
T1 sequence: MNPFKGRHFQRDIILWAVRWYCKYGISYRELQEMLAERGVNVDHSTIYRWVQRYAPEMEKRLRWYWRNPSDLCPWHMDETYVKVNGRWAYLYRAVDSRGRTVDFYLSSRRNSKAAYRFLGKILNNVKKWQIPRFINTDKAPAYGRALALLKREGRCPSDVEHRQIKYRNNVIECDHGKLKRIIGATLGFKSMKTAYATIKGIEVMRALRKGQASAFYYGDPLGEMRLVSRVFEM
In words: EMSA.

In the next data set the target is T2, Tnp26 W50A (IS26 (bacterial insertion sequence; …, UniProt A0A2K9V0L7 1-234, W50A;G117R).
T2 sequence: T1 sequence with W50A
In words: EMSA.

The target in a further data set is T3, Tnp26 F4A (IS26 (bacterial insertion sequence; …, UniProt A0A2K9V0L7 1-234, F4A;G117R).
T3 sequence: T1 sequence with F4A
In words: EMSA.

The target of the next data set is T4, Tnp26 R49A (IS26 (bacterial insertion sequence; …, UniProt A0A2K9V0L7 1-234, R49A;G117R).
T4 sequence: T1 sequence with R49A
In words: EMSA.

In the next data set the target is T5, Tnp26 F9A (IS26 (bacterial insertion sequence; …, UniProt A0A2K9V0L7 1-234, F9A;G117R).
T5 sequence: T1 sequence with F9A
The experiment in a line: EMSA.

For the next data set, the target named is T6, Tnp26 Y54A (IS26 (bacterial insertion sequence; …, UniProt A0A2K9V0L7 1-234, Y54A;G117R).
T6 sequence: T1 sequence with Y54A
In words: MST.

Data set [2] has as its target T7, Tnp26 1-56 (IS26 (bacterial insertion sequence; …, UniProt A0A2K9V0L7 1-56).
T7 sequence: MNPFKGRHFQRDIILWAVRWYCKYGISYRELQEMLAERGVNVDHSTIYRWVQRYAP
The experiment in a line: EMSA.

Data set [3] deals with T1, Tnp26 WT. In words: EMSA. The source holds these as a separate data set.
Data set [4] addresses T1, Tnp26 WT. In words: MST.
Data set [5] deals with T7, Tnp26 1-56. The experiment in a line: EMSA. The source holds these as a separate data set.

Residue numbers refer to the chain shown, from its start. Like-named read-outs stand apart in the source and are kept apart here.

B1: TIRR 25mer (dsDNA)
DNA 1: TCAGATCGATGGCACTGTTGCAAAG
DNA 2: CTTTGCAACAGTGCCATCGATCTGA
For B1, the binding result in the data set with Tnp26 WT [1] was “no binding”.

B2: TIRL 50mer (dsDNA)
DNA 1: TCAGATCGATGGCACTGTTGCAAATAGTCGGTGGTGATAAACTTATCATC
DNA 2: GATGATAAGTTTATCACCACCGACTATTTGCAACAGTGCCATCGATCTGA
Turning to B2, the binding result in the data set with Tnp26 W50A, with Tnp26 F4A, with Tnp26 R49A and with Tnp26 F9A was “no binding” each time. Further, in the data set with Tnp26 Y54A, the affinity, expressed as Kd, was 802 nM.

B3: Scrambled TIRR (dsDNA)
DNA 1: TTCGTGACTACATCGATCTAGGCTAGCTAGTCAGCTGATCGACTAGCGAT
DNA 2: ATCGCTAGTCGATCAGCTGACTAGCTAGCCTAGATCGATGTAGTCACGAA
Consider B3, for which the binding result with Tnp26 1-56 [2], with Tnp26 W50A, with Tnp26 F4A, in the data set with Tnp26 R49A, with Tnp26 F9A and in the data set with Tnp26 WT [3] was “no binding” each time.

B4: TIRR 50mer (dsDNA)
DNA 1: TCAGATCGATGGCACTGTTGCAAAGTTAGCGATGAGGCAGCCTTTTGTCT
DNA 2: AGACAAAAGGCTGCCTCATCGCTAACTTTGCAACAGTGCCATCGATCTGA
With B4, the binding result with Tnp26 W50A, with Tnp26 F4A, with Tnp26 R49A and in the data set with Tnp26 F9A was “no binding” throughout. For the same molecule, binding with Tnp26 WT [4] was put at a Kd of 394 nM.

B5: TIRR 10G>T (dsDNA)
DNA 1: B4 DNA 1 with G20T
DNA 2: B4 DNA 2 with C31A
Turning to B5, the Kd with Tnp26 WT [4] stood at 872 nM.

B6: TIRR 7G>T (dsDNA)
DNA 1: B4 DNA 1 with G17T
DNA 2: B4 DNA 2 with C34A
On to B6, for which the binding result with Tnp26 1-56 [5] and in the data set with Tnp26 WT [3] was “no binding” throughout.

B7: TIRR 1G>T 2G>T (dsDNA)
DNA 1: B4 DNA 1 with G11T, G12T
DNA 2: B4 DNA 2 with C39A, C40A
B7: the Kd in the data set with Tnp26 WT [4] amounted to 240 nM. This lies in the sub-micromolar range.

(Values after publication PMC8477213.)
